Source: patent US20230158141A1 (YAFEI SHANGHAI BIOLOG MEDICINE SCIENCE AND TECHNOLOGY, published 2023)
Changes are numbered by the printed parent chain. Names may count otherwise.

How the values were obtained:
[1] = biological target: His tagged VEGF protein (UniProt P15692-4 27-191, limits assumed); assay: ELISA, His tagged VEGF protein
[2] = biological target: PD-1 (UniProt Q15116 25-167, limits assumed); assay: ELISA, OD mutant/OD WT; ↓=less than 70%
Target sequence in this assay (Q15116 25-167 limits assumed): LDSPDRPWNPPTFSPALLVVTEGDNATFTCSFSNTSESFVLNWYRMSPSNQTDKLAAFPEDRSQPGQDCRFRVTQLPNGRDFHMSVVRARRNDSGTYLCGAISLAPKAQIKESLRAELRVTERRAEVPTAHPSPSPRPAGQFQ

[3] = biological target: T1, PD-1 (UniProt Q15116 25-167, limits assumed); assay: ELISA, EC50 fold change; S47 on the Cys
T1 construct: also called PD-1 antigen
T1 sequence (Q15116 25-167 limits assumed): as above

[4] = biological target: mouse CTLA-4 protein (mouse, UniProt P09793 36-162, limits assumed); assay: ELISA, TMEAbody against WT 9D9
[5] = biological target: T2, IL2Rβ-Fc (UniProt P14784 27-239, limits assumed); assay: ELISA, against wild type IL2
T2 construct: also called IL2Rb; not shown: Fc part, not described
T2 sequence (looked up): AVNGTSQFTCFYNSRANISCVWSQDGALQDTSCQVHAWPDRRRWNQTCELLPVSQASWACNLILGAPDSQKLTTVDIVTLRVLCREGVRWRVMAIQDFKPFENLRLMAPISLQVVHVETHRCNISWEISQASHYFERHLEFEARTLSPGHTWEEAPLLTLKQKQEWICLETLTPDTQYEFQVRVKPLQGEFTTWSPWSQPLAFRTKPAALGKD

[6] = biological target: T3, mouse PD-1 protein (mouse, UniProt Q02242 25-167, limits assumed); assay: ELISA, TMEAbody against WT J43v2
T3 sequence (looked up): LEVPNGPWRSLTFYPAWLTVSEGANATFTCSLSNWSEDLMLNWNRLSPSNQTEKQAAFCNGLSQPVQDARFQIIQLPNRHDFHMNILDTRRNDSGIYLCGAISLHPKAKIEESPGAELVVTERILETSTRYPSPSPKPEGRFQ

Sequence of His tagged VEGF protein (P15692 other isoform, or with tags, fused parts or gaps limits assumed): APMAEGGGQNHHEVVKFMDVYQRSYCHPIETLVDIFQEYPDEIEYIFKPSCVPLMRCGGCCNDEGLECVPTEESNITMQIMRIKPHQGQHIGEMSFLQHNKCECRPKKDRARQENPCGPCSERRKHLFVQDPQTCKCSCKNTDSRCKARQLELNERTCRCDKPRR

B1: Beva-se001 conjugated to S47 (antibody, human IgG1, kappa, V domains shown)
VH: EVQLVESGGGLVQPGGSLRLSCAASGYTFTNYGMNWVRQAPGKGLEWVGWINTYTGEPTYAADFCRRFTFSLDTSKSTAYLQMNSLRAEDTAVYYCAKYPHYYGSSHWYFDVWGQGTLVTVSS
VL: DIQMTQSPSSLSASVGDRVTITCSASQDISNYLNWYQQKPGKAPKVLIYFTSSLHSGVPSRFSGSGSGTDFTLTISSLQPEDFATYYCQQYSTVPWTFGQGTKVEIKR
modifications: S47 on Cys 65
notes: Bevacizumab mutant
- Blocking efficiency of S47 [1]: 9 fold

B2: anti-PD-1 antibody 2 light chain Y32C (antibody, human IgG4 S228P, kappa, V domains shown)
VH: QVQLVESGGGVVQPGRSLRLDCKASGITFSNSGMHWVRQAPGKGLEWVAVIWYDGSKRYYADSVKGRFTISRDNSKNTLFLQMNSLRAEDTAVYYCATNDDYWGQGTLVTVSS
VL: EIVLTQSPATLSLSPGERATLSCRASQSVSSCLAWYQQKPGQAPRLLIYDASNRATGIPARFSGSGSGTDFTLTISSLEPEDFAVYYCQQSSNWPRTFGQGTKVEIKR
- binding activity vs wild type [2]: < 70%

B3: Niv-se007 (Nivolumab light chain Ser91Cys) (antibody, human IgG4 S228P, kappa, V domains shown)
VH: B2 VH
VL: B2 VL with C32Y, S91C
modifications: Cys at 91 carries the group named in the row
- Blocking efficiency of S47 [3]: 25 fold

B4: 9D9 TMEAbody (anti-mouse CTLA-4 antibody 9D9, Tyr54 on LC) (antibody, mouse IgG2b, kappa)
heavy: EAKLQESGPVLVKPGASVKMSCKASGYTFTDYYMNWVKQSHGKSLEWIGVINPYNGDTSYNQKFKGKATLTVDKSSSTAYMELNSLTSEDSAVYYCARYYGSWFAYWGQGTLITVSTAKTTPPSVYPLAPGCGDTTGSSVTLGCLVKGYFPESVTVTWNSGSLSSSVHTFPALLQSGLYTMSSSVTVPSSTWPSQTVTCSVAHPASSTTVDKKLEPSGPISTINPCPPCKECHKCPAPNLEGGPSVFIFPPNIKDVLMISLTPKVTCVVVDVSEDDPDVQISWFVNNVEVHTAQTQTHREDYNSTIRVVSTLPIQHQDWMSGKEFKCKVNNKDLPSPIERTISKIKGLVRAPQVYILPPPAEQLSRKDVSLTCLVVGFNPGDISVEWTSNGHTEENYKDTAPVLDSDGSYFIYSKLNMKTSKWEKTDSFSCNVRHEGLKNYYLKKTISRSPGK
light: DIVMTQTTLSLPVSLGDQASISCRSSQSIVHSNGNTYLEWYLQKPGQSPKLLICKVSNRFSGVPDRFSGSGSGTDFTLKISRVEAEDLGVYYCFQGSHVPYTFGGGTKLEIKRADAAPTVSIFPPSSEQLTSGGASVVCFLNNFYPKDINVKWKIDGSERQNGVLNSWTDQDSKDSTYSMSSTLTLTKDEYERHNSYTCEATHKTSTSPIVKSFNRNEC
modifications: functional moiety on Cys 54 (which R1-R2-R3-R4 is not stated)
notes: mIgG2b isotype
- blocking efficiency (fold) [4]: 26 fold

B5: chemically modified IL2 Arg38Asp/Glu61Arg with Lys9 and Lys76 conjugated with R4-7 (other)
chain: APASSTKCTQLQLEHLLLDLQMILNGINNYKNPKLTDMLTFKFYMPKKATELKHLQCLERELKPLEEVLNLAQSCNFHLRPRDLISNINVIVLELKGSETTFMCEYADETATIVEFLNRWITFSQSIISTLT
modifications: R4-7 on Cys 9 and Cys 76
notes: also called a new chemically modified IL2
- fold increase of binding [5]: 1.35 fold

B6: J43v2 TMEAbody (anti-mouse PD-1 antibody J43v2, Ser95 on LC) (antibody, mouse IgG2a, V domains shown)
VH: EVRLLESGGGLVKPEGSLKLSCVASGFTFSDYFMSWVRQAPGKGLEWVAHIYTKSYNYATYYSGSVKGRFTISRDDSRSMVYLQMNNLRTEDTATYYCTRDGSGYPSLDFWGQGTQVTVSS
VL: YELTQPPSASVNVGETVKITCSGDQLPKYFADWFHQRSDQTILQVIYDDNKRPSGIPERISGSSSGTTATLTIRDVRAEDEGDYYCFSGYVDSDCKLYVFGSGTQLTVLG
modifications: functional moiety on Cys 95 (which R1-R2-R3-R4 is not stated)
notes: Heavy chain re-formatted into mouse IgG2a
- blocking efficiency (fold) [6]: 35 fold
